These results are taken from US20070207086A1 (published 2007).

The target of assay [1] is T1, Recombinant purified HER2 receptor composed of the ectodomain of HER2 fused to the Fc of human IgG (human, UniProt P04626 23-652, limits assumed).
T1 construct: extracellular domain; Provided by Dr. Che Law, Xcyte Therapeutics; amine-coupled to the Biacore chip (3500 RU); also called immobilized HER2; p185; not shown: Fc of human IgG
Kind of assay: Biacore SPR, HER2 ectodomain-Fc immobilized, peptide as analyte. The procedure: (§1) Binding experiments were performed with the surface plasmon resonance based biosensor instrument Biacore 3000 (Biacore AB, Uppsala, Sweden) at 25° C. Recombinant purified HER2 receptor composed of the ectodomain of HER2 fused to the Fc of human IgG was provided by Dr. Che Law, Xcyte Therapeutics, Seattle, Wash. Immobilization of HER2 in the sensor surface was performed following the standard amine coupling procedure according to manufacturer's instructions. Briefly, 35 μL of a solution containing 0.2M N-ethyl-N-(dimethylaminopropyl) carbodiimide (EDC) and 0.05 M N-hydroxysuccinimide (NHS) were injected at a flow rate of 5 μL/min to activate carboxyl groups on the sensor chip surface. HER2 (40 ng/mL in 10 mM NaOAc buffer, pH 5.0) was flowed over the chip surface at a flow rate of 20 μL/min until the desired level bound protein was reached. Unreacted protein washed out and unreacted activated groups were blocked by the injection of 35 μL of 1 M ethanolamine at 5 μL/min. […] A reference surface was generated simultaneously under the same conditions but without HER2 injection and used as a blank to correct for instrument and buffer artifacts. Peptides were injected at variable concentrations at 20 μL/min flow rate and binding to the HER2 receptor immobilized on the chip was monitored in real time. Each sensorgram consists of an association phase (first 240s), reflecting binding of the injected peptide to the receptor, followed by a dissociation phase (300s), during which the running buffer is passed over the chip and the bound peptide is being washed off the receptor surface.

Assay [2] deals with human HER2 receptor overexpressed on T6-17 cells (NIH3T3-derived) (human, UniProt P04626 23-1255). Kind of assay: cell-based or functional assay.
Assay [3] concerns the target T1, Recombinant purified HER2 receptor …. Briefly: Biacore SPR, immobilized HER2-Fc. Here is the method: as §1
For assay [4] the target is unchanged. Kind of assay: Biacore competition, AHNP preinjected 0-90 µM, then 1 nM rhumAb 4D5 (competitor) on immobilized HER2-Fc; initial rate of antibody binding. Here is the method: as §1, with “Each sensorgram consists of an association phase (first 240s), reflecting binding of the injected peptide to the receptor, followed by a dissociation phase (300s), during which the running buffer is passed over the chip and the bound peptide is being washed off the receptor surface.” left out
A general note: SPR reads the build-up and loss of mass on a sensor chip optically.

Positions of bridges follow the written chain, without caps; N, C: chain ends. No end group written: not given here.

B1: AHNP analogue 5, FCDGFYACYMDVK-NH2 (peptide)
peptide: FCDGFYACYMDVK-NH2
modifications: disulfide 2-8 (inferred)
notes: Lys added as C-terminal residue; also called peptide 5
In general, Kd refers to a measure of binding affinity in units of concentration. Usually koff stands for the rate constant with which the complex falls apart. The term kon denotes the second-order rate constant of association. Regarding B1, in assay [1], the Kd is 830 nM, the koff came to 0.000512 s⁻¹ and the on-rate (kon) amounted to 617 M⁻¹ s⁻¹.

B2: AHNP analogue 7, GFCDGFYACYMDV-OH (peptide)
peptide: GFCDGFYACYMDV-OH
modifications: disulfide 3-9 (inferred)
notes: Gly placed at the N-terminus before Phe1; also called peptide 7
As to B2, in assay [1], the equilibrium dissociation constant (Kd) is 730 nM, the koff worked out at 0.000808 s⁻¹ and the kon came out at 1110 M⁻¹ s⁻¹.

B3: AHNP analogue 2, FCDGFYACYMDV-OH (cyclic) (peptide)
peptide: FCDGFYACYMDV-OH
modifications: disulfide 2-8 (inferred)
notes: also called peptide 2
On to B3, for which the “% inhibition (inhibition of T6-17 cell proliferation in MTT assays, 1 µg/mL peptide)” value (shortened to “% inhibition”) in assay [2] amounted to 22.3%. For the same molecule, in assay [1], the dissociation constant (Kd) turned out to be 650 nM, the off-rate (koff) was 0.000643 s⁻¹ and the association rate constant (kon) was 990 M⁻¹ s⁻¹. The “fold higher affinity than the linear analogue 9” value in assay [3] was more than 5 fold.

B4: AHNP analogue 9, FCDGFYACYMDV-OH (linear, not cyclized) (peptide)
peptide: FCDGFYACYMDV-OH
modifications: cysteine pairing not given here
notes: also called peptide 9; linear analogue 9
With B4, the “% inhibition” value in assay [2] was found to be 12.8%. Moreover, in assay [1], the Kd stood at 3560 nM, the off-rate constant (koff) was found to be 0.00106 s⁻¹ and the kon was 298 M⁻¹ s⁻¹.

B5: AHNP analogue 8, FCGDGFYACYMDV-OH (peptide)
peptide: FCGDGFYACYMDV-OH
modifications: disulfide 2-9 (inferred)
notes: First AHNP analogue designed; has one more turn Gly than peptide 2; also called peptide 8
Take B5: the “% inhibition” value in assay [2] turned out to be 18.4%. In assay [1], the equilibrium dissociation constant (Kd) came out at 760 nM, the off-rate constant (koff) was 0.000701 s⁻¹ and the on-rate (kon) was determined as 922 M⁻¹ s⁻¹.

B6: AHNP (anti-HER2/neu peptide mimetic), peptide 1, FCDGFYACYMDV-NH2 (peptide)
peptide: FCDGFYACYMDV-NH2
modifications: disulfide 2-8
notes: Designed from the CDR-H3 loop of rhumAb 4D5; also called anti-HER2 peptide
Usually IC50 stands for the point on the concentration scale where inhibition reaches its midpoint. With B6, the “% inhibition” value in assay [2] was found to be 35.5%. Further, in assay [1], the Kd was found to be 320 nM, the dissociation rate constant (koff) worked out at 0.000453 s⁻¹ and the association rate constant (kon) stood at 1410 M⁻¹ s⁻¹. For the same molecule, the “fold increase in binding affinity against peptide 2” value in assay [3] was more than 2 fold. The IC50 in assay [4] is 3400 nM.

B7: AHNP analogue 6, FCDGFYACYKDV-OH (peptide)
peptide: FCDGFYACYKDV-OH
modifications: disulfide 2-8 (inferred)
notes: Met of peptide 2 replaced by Lys; also called peptide 6
Regarding B7, the “% inhibition” value in assay [2] came out at 8.4%. In assay [1], the Kd is 5700 nM, the koff amounted to 0.00125 s⁻¹ and the kon is 219 M⁻¹ s⁻¹. Further, in assay [3], the “fold decrease in affinity (Lys substituted for Met)” value is 8.8 fold.

B8: AHNP analogue 3, YCDGFYACYMDV-NH2 (peptide)
peptide: YCDGFYACYMDV-NH2
modifications: disulfide 2-8 (inferred)
notes: N-terminal Phe of AHNP replaced with Tyr; also called peptide 3
As for B8, the “% inhibition” value in assay [2] was determined as 59.6%. Also, in assay [1], the Kd was 150 nM, the koff is 0.000294 s⁻¹ and the on-rate constant (kon) was 1960 M⁻¹ s⁻¹. Besides, in assay [3], the “fold improvement in binding (Phe replaced with Tyr)” value is more than 2 fold.
